Reference: publication PMC12554172, “Systematic analysis of the RGS2 degron reveals characteristics of substrate recognition by the F-box protein FBXO44” (The Journal of Biological Chemistry, 2025)
“Also recorded” adds a separate entry of the source.

Experiments:
[1] = tested on: RGS2-HA; assay: Coimmunoprecipitation of FLAG-FBXO44 mutant with RGS2-HA; assay type: cell-based; details: HEK-293T cells, HA tag IP, normalized to input, % of WT, three independent experiments
Method: (§1) Figure 6 Point mutations disrupt the RGS2–FBXO44 association. Co-IP was performed in HEK-293T cells transiently transfected with RGS2-HA and FLAG-FBXO44 (WT and mutants as indicated). […] Representative blot and quantification of four independent experiments. […] Levels of each protein were normalized to input and expressed as % of WT. Representative blot and quantification of three independent experiments. ∗p < 0.05; ∗∗∗∗p < 0.0001 using Student's unpaired t test. Co-IP, coimmunoprecipitation; FBXO44, F-box only protein 44; RGS2, regulator of G protein signaling 2.
(§2) Cells were maintained in a humidified incubator at 37 °C with 5% CO2. HEK-293T cells were obtained from the American Type Culture Collection (ATCC; CRL-1573). The American Type Culture Collection cell lines are subjected to comprehensive and repeated authentication and contamination checks, ensuring confirmation of cell line identity and ensuring that it is free of contamination prior to supplying it to users. Cells underwent periodical (every 6 months) mycoplasma testing to ensure cell lines are not compromised. Cells were cultured in Dulbecco's modified Eagle's medium (Gibco, catalog no.: 11995) and supplemented with 10% fetal bovine serum (Gibco, catalog no.: 16000). Cells were transfected with DNA plasmids using Lipofectamine 3000 (Invitrogen) under reduced serum conditions in Opti-MEM (Gibco, catalog no.: 31985). […]

[2] = tested on: FBXO44; details: ref [24]; cited from earlier work
Text: However, evidence of a direct interaction between RGS2 and FBXO44 has, until now, not yet been established. Thus, we first aimed to verify that purified FBXO44 would bind the degron sequence in vitro. […] This also c ...

[3] = tested on: FBXO44; assay: siRNA-mediated FBXO44 knockdown, Western blot; assay type: cell-based, human; details: HEK-293T cells; for RGS2 protein levels upon FBXO44 knockdown: FBXO44 siRNA, Fig. 7, D and F, three independent experiments
Method: Using a pool of 4 siRNA oligos (siGENOME SMART Pools; Dharmacon/Revvity), we achieved ∼70% reduction in endogenous FBXO44 protein levels in HEK-293T cells (Fig. 7, D and E).
Cells were maintained in a humidified incubator at 37 °C with 5% CO2. HEK-293T cells were obtained from the American Type Culture Collection (ATCC; CRL-1573). The American Type Culture Collection cell lines are subjected to comprehensive and repeated authentication and contamination checks, ensuring confirmation of cell line identity and ensuring that it is free of contamination prior to supplying it to users. Cells underwent periodical (every 6 months) mycoplasma testing to ensure cell lines are not compromised. Cells were cultured in Dulbecco's modified Eagle's medium (Gibco, catalog no.: 11995) and supplemented with 10% fetal bovine serum (Gibco, catalog no.: 16000). Cells were transfected with DNA plasmids using Lipofectamine 3000 (Invitrogen) under reduced serum conditions in Opti-MEM (Gibco, catalog no.: 31985). Media were changed to Dulbecco's modified Eagle's medium supplemented with 0.5% fetal bovine serum after 4 to 6 h, and cells were harvested for experiments 24 h after transfection. siRNA transfections were performed under reduced serum conditions in Opti-MEM 24 h prior to DNA transfections at 40% to 60% confluency. Cells were transfected with siGENOME SMART-POOL siRNA (FBXO44, M-019201-01-0005; Nontargeting, D-001206-13-05) from Dharmacon (Revvity) using Lipofectamine RNAiMAX (Invitrogen). Experiments were performed 72 h after transfection.
Cells were harvested on ice in lysis buffer containing protease inhibitors (50 mM Tris–HCl [pH 7.4], 5 mM NaCl, 0.5 mM EDTA, 1% Triton X-100, 10% cOmplete Protease Inhibitor Cocktail EDTA-free). Lysates were bath sonicated for 10 min at 4 °C, centrifuged at 6000g for 3 min, and the supernatant was used for SDS-PAGE and immunoblotting. Total protein concentration was determined using the Pierce BCA Protein Assay Kit. Samples were diluted to 1 μg/μl in protein sample loading buffer (Li-Cor Biosciences). […]

[4] = tested on: HEK-293T cells; assay: RGS2 protein levels, baseline and with proteasome inhibitor MG-132; assay type: cell-based, human; details: for change of RGS2 protein levels with MG-132 / change of RGS2 protein levels with MG-132 (Fig. S4): MG-132 10 μM, 4 h
Text: Representative Western blot and quantification of three independent experiments. […] Representative Western blot and quantification of three independent experiments. Representative Western blot (D), quantification of knockdown efficiency (E), and effects on RGS protein levels (F) when FBXO44 is knocked down using siRNA. […] Result of three independent experiments. ∗p < 0.05; ∗∗p < 0.01; ∗∗∗p < 0.001 using two-way ANOVA followed by Tukey's post hoc test for pairwise comparisons (C, E, and F). FBXO44, F-box only protein 44; HEK-293T, human embryonic kidney-293T cell line; RGS2, regulator of G protein signaling 2.
(§3) Cells were harvested on ice in lysis buffer containing protease inhibitors (50 mM Tris–HCl [pH 7.4], 5 mM NaCl, 0.5 mM EDTA, 1% Triton X-100, 10% cOmplete Protease Inhibitor Cocktail EDTA-free). Lysates were bath sonicated for 10 min at 4 °C, centrifuged at 6000g for 3 min, and the supernatant was used for SDS-PAGE and immunoblotting. Total protein concentration was determined using the Pierce BCA Protein Assay Kit. Samples were diluted to 1 μg/μl in protein sample loading buffer (Li-Cor Biosciences).
(§4) Equal amounts of protein in each lane were resolved on a 12% SDS-PAGE gel for 1 h at 160 V. Samples were transferred to an Immobilon-FL PVDF membrane (Millipore) and subjected to Western immunoblot analysis using Li-Cor blocking buffer for both blocking and antibody diluents. Membranes were blocked for 1 h, then incubated for 2 h in primary antibodies as described under “Antibodies,” and finally incubated for 1 h with IRDye secondary antibodies directed at the species of the primary antibody. Following each antibody incubation, membranes were washed four times in PBS with 0.1% Tween-20. Membranes were imaged using an Azure600 imaging system (Azure Biosystems).
Figure S4. Effect of RGS2 mutations on protein stability. Representative western blot and quantification of five or six independent experiments (varies by mutation). The proteasome inhibitor MG-132 (10 μM, 4 h) […]
P15R were predicted to destabilize RGS2, due to increased binding to FBXO44 in the peptide microarray. […]
significant. *P<0.05; ***P<0.001 using two-way ANOVA followed by Tukey’s post hoc test for pairwise

[5] = tested on: HEK-293T cells; assay: Cycloheximide (CHX) chase assay; assay type: cell-based, human; details: for RGS2 protein half-life (t1/2): CHX 50 μM, Western blot, three independent experiments
Method: HEK-293T cells in 12-well plates, transiently transfected with either RGS2^WT or RGS2^C13S, were treated with CHX (50 μM) at indicated time points. Cells were harvested as described later and subjected to SDS-PAGE and Western blot.
as §3, §4

[6] = tested on: FLAG-FBXO44; assay: Coimmunoprecipitation of RGS2-HA mutant with FLAG-FBXO44; assay type: cell-based; details: HEK-293T cells, HA tag IP, normalized to input, % of WT; four independent experiments
Method: as §1, §2

[7] = Fig. 7, B and C, three independent experiments
[8] = Fig. S4, five or six independent experiments

B1: FLAG-FBXO44^Y234A: FLAG-tagged FBXO44 with Y234A mutation (protein)
chain: MAVGNINELPENILLELFTHVPARQLLLNCRLVCSLWRDLIDLVTLWKRKCLREGFITEDWDQPVADWKIFYFLRSLHRNLLHNPCAEEGFEFWSLDVNGGDEWKVEDLSRDQRKEFPNDQVKKYFVTSYYTCLKSQVVDLKAEGYWEELMDTTRPDIEVKDWFAARPDCGSKYQLCVQLLSSAHAPLGTFQPDPATIQQKSDAKWREVSHTFSNYPPGVRYIWFQHGGVDTHAWAGWYGPRVTNSSITIGPPLP
modifications: left off: FLAG, end not stated, kept
notes: FLAG-tagged FBXO44 with Y234A mutation
For B1, the “association with RGS2-HA (co-IP)” value [1] was “associates significantly less” and the “association with RGS2-HA (co-IP)” value ([1]; listed as FBXO44^Y234A) was “significantly reduced association”.

B2: RGS4: closely related RGS4, subject to proteasomal degradation by a different pathway (protein, UniProt P49798 1-205, looked up)
Regulator of G-protein …: MCKGLAGLPASCLRSAKDMKHRLGFLLQKSDSCEHNSSHNKKDKVVICQRVSQEEVKKWAESLENLISHECGLAAFKAFLKSEYSEENIDFWISCEEYKKIKSPSKLSPKAKKIYNEFISVQATKEVNLDSCTREETSRNMLEPTITCFDEAQKKIFNLMEKDSYRRFLKSRFYLDLVNPSSCGAEKQKGAKSSADCASLVPQCA
For B2, the “co-IP with FBXO44” value [2] is given as “does not coimmunoprecipitate with FBXO44”.

B3: RGS2^WT: full-length wild-type RGS2 expressed in HEK-293T cells (protein)
chain: MQSAMFLAVQHDCRPMDKSAGSGHKSEEKREKMKRTLLKDWKTRLSYFLQNSSTPGKPKTGKKSKQQAFIKPSPEEAQLWSEAFDELLASKYGLAAFRAFLKSEFCEENIEFWLACEDFKKTKSPQKLSSKARKIYTDFIEKEAPKEINIDFQTKTLIAQNIQEATSGCFTTAQKRVYSLMENNSYPRFLESEFYQDLCKKPQITTEPHAT
modifications: left off: HA, end not stated, kept
notes: full-length wild-type RGS2 expressed in HEK-293T cells
In the case of B3, the “RGS2 protein levels upon FBXO44 knockdown” value [3] is reported as “significantly increases; also recorded: significant increase”, the “change of RGS2 protein levels with MG-132” value [4, 7] is reported as “significantly enhanced” and the “change of RGS2 protein levels with MG-132 (Fig. S4)” value [4, 8] is reported as “significantly increases”. The “RGS2 protein half-life (t1/2)” value ([5]; transfected HEK-293T) was 19.5 min.

B4: RGS2^C13S: full-length RGS2 with C13S mutation (protein)
chain: MQSAMFLAVQHDSRPMDKSAGSGHKSEEKREKMKRTLLKDWKTRLSYFLQNSSTPGKPKTGKKSKQQAFIKPSPEEAQLWSEAFDELLASKYGLAAFRAFLKSEFCEENIEFWLACEDFKKTKSPQKLSSKARKIYTDFIEKEAPKEINIDFQTKTLIAQNIQEATSGCFTTAQKRVYSLMENNSYPRFLESEFYQDLCKKPQITTEPHAT
modifications: left off: HA, end not stated, kept
notes: full-length RGS2 with C13S mutation
With B4 the “RGS2 protein levels upon FBXO44 knockdown” value [3] was “significantly increases RGS2^WT but not RGS2^C13S protein levels; also recorded: significant increase in RGS2^WT but not RGS2^C13S protein levels”, the “RGS2^C13S expression level versus RGS2^WT in siRNA experiments” value ([3]; Fig. 7F) was “significantly higher levels than RGS2^WT” and the “change of RGS2 protein levels with MG-132” value [4, 7] was “not significantly changed; also recorded: does not significantly change”. For the same molecule, the “basal RGS2 protein level versus RGS2^WT” value ([4]; no MG-132, Fig. 7, B and C, three independent experiments) was “increased protein levels at baseline; however, this increase was not statistically significant; also recorded: upward trend in basal expression”, the “extension of RGS2 protein half-life versus RGS2^WT” value ([5]; CHX chase, RGS2^C13S versus RGS2^WT) was “almost twofold; also recorded: almost double that of RGS2^WT” and the “RGS2 protein stability versus RGS2^WT (in words)” value ([5]; CHX chase, transfected HEK-293T) was “significantly stabilized”. The “RGS2 protein half-life (t1/2)” value ([5]; transfected HEK-293T) was 33.5 min.

B5: RGS2^D12R: full-length RGS2 with D12R mutation (protein, UniProt P41220 1-211, looked up, variant D12R)
chain: MQSAMFLAVQHRCRPMDKSAGSGHKSEEKREKMKRTLLKDWKTRLSYFLQNSSTPGKPKTGKKSKQQAFIKPSPEEAQLWSEAFDELLASKYGLAAFRAFLKSEFCEENIEFWLACEDFKKTKSPQKLSSKARKIYTDFIEKEAPKEINIDFQTKTLIAQNIQEATSGCFTTAQKRVYSLMENNSYPRFLESEFYQDLCKKPQITTEPHAT
modifications: full-length
notes: full-length RGS2 with D12R mutation
In the case of B5, the “change of RGS2 protein levels with MG-132 (Fig. S4)” value [4, 8] is reported as “none of these mutations resulted in significant changes in basal expression or response to MG-132” and the “basal RGS2 protein expression versus RGS2^WT (Fig. S4)” value ([4]; no MG-132, Fig. S4, five or six independent experiments) is reported as “trend toward lower basal expression”.

B6: RGS2^C13S-HA: HA-tagged RGS2 with C13S mutation (protein)
chain: MQSAMFLAVQHDSRPMDKSAGSGHKSEEKREKMKRTLLKDWKTRLSYFLQNSSTPGKPKTGKKSKQQAFIKPSPEEAQLWSEAFDELLASKYGLAAFRAFLKSEFCEENIEFWLACEDFKKTKSPQKLSSKARKIYTDFIEKEAPKEINIDFQTKTLIAQNIQEATSGCFTTAQKRVYSLMENNSYPRFLESEFYQDLCKKPQITTEPHAT
modifications: left off: HA, end not stated, kept
notes: HA-tagged RGS2 with C13S mutation
In the case of B6, the “association with FLAG-FBXO44 (co-IP)” value [6] is reported as “significantly reduced association; also recorded: associates significantly less”.
